Assay results from PMC10653861, “Three small partner proteins facilitate the type VII-dependent secretion of an antibacterial nuclease” (mBio, 2023).

Target: the molecule itself
Assay: cross-linking; purified complexes from the major SEC peaks, 0.5 mg/mL in 50 mM HEPES pH 7.5, 150 mM NaCl, 0.1% glutaraldehyde for 30 min at room temperature, quenched with tris; SEC and SDS-PAGE with Coomassie staining

B1: EsaDEG trimer (complex)
chain 1: MTKDIEYLTADYDNEKSSIQSVIDAIEGQDFLDVDTTMDDAVSDVSSLDEDGAISLTSSVVGPQGSKLMGYYQNELYDYASQLDSKMKEIIDTPFIEDIDKAFKGITNVKLENILIKNGGGHGRDTYGASGKIAKGDAKKSDSDVYSIDEILKSDQEFVKVIDQHYKEMKKEDKKLSKSDFEKMMTQGASCDYMTVAEAEELEEQKKKEEAIEIAALAGMVVLSCINPVAGAVAIGAYSAYSAANAATGKNIVTGRKLSKEERIMEGLSLIPLPGMGFLKGAGKSLMKLGFKGGEKFAVKTGLQKTMQQAVSRISPKMGMMKNSVLNQSRNFAQNTHVGQMLSNMRGQATHTVQQSRNWIGQQAQNVKRIVNNGLDKEIAHPFKQQLAPAGMGGIKFAETTTLRNMGQNIKRAVTPQNHVTHGPKDSMVRSEGKHSISSHEMNSSKYVESPNYTKVEFGEHYARLRPKKLKANIEYTTPTGHIYRTDHKGRIKEVYVDNLSLKDGDRNSHAQRTVGGEDRLPDDDGGALIARMFGGSKDIDNLVAQSKFINRPFKEKGHWYNLEKEWQEFLNSGKEVKNIKMEVKYSGNSQRPTIFKVEYEINGERNIRRILNK
chain 2: MKDVKRIDYFSYEELTILGGSKLPLVNFELFDPSNFEEAKAALIEKELVTENDKLTDAGFKVATLVREYISAIVNIRINDMYFAPFSYEKDEYILLSRFKNNGFQIRIINKDIAWWSIVQSYPLLMRQEKSNDWDFKQIDDETLENLNNESIDTIGRVLEIEIYNHQGDPQQSLYNIYEQNDLLFIRYPLKDKVLNVHIGVINTFIRELFGFDTDENHINKAEE
chain 3: MTFEEKLSKIYNEIANEISSMIPVEWEKVYTMAYIDDGGGEVFFNYTKPGSDDLNYYTNIPKEYNISVQVFDDLWMDLYDLFEELRDLFKEEDLEPWTSCEFDFTREGELKVSFDYIDWINSEFGQIGRQNYYKYRKFGILPETEYEINKVKEIEQYIKELEE
notes: EsaD nuclease toxin of Staphylococcus aureus with H528A, as m1; EsaE chaperone of Staphylococcus aureus, as m5; EsaG immunity protein of Staphylococcus aureus, as m6; also called EsaDEG complex; not shown: His6, C-terminal, kept; copies: + +
B1: binds.
